Test results taken from patent publication US20080207449A1 (CROPDESIGN N V, published 2008).

Legend:
[1] = biological target: T1, pGBT DPa 1-292: GAL4 DNA-binding domain fusion of AtDPa 1-292 (Arabidopsis thaliana); test: yeast two-hybrid, growth on His- minimal medium; empty prey vector control; legend: -, no interaction
T1 construct: its construction is not described

[2] = biological target: T2, pGBTE2Fb-Rb: GAL4 DNA-binding domain fusion of AtE2Fb amino acids 1-385 (lacking the Rb-binding domain) (Arabidopsis); test: as above
T2 construct: also called E2F3 N-terminal; E2Fb (=E2F3) N-terminal domain

[3] = biological target: T3, pGBT DPb 1-385: GAL4 DNA-binding domain fusion of AtDPb 1-385 (Arabidopsis thaliana); test: as above
T3 construct: its construction is not described

[4] = biological target: T4, pGBTE2Fa226-356: GAL4 DNA-binding domain fusion of AtE2Fa amino acids 226-356 (Arabidopsis); test: as above
T4 construct: also called E2F5 dimerisation domain; E2Fa (=E2F5) dimerization domain

[5] = biological target: pGBTE2Fb 1-127: GAL4 DNA-binding domain fusion of AtE2Fb amino acids 1-127 (Arabidopsis); test: as above
[6] = biological target: T5, empty pGBT9 (GAL4 DNA-binding domain alone) (UniProt P04386 1-147); test: yeast two-hybrid, growth on His- minimal medium; both vectors empty; legend: -, no interaction
T5 construct: empty bait vector, control for specificity; also called pBGT9
Experimental: Different combinations between bait (pGBTE2Fa226-356, pGBTE2Fb-Rb, or pGBTE2Fb 1-127, SEQ ID NO:207) and prey constructs were transformed into yeast cells and assayed for their ability to grow on His⁻ minimal media after 3 days of incubation at 30° C. Bait plasmids co-transformed with empty pAD-GAL424 and prey plasmids co-transformed with empty pGBT9 were assessed along as controls for the specificity of the interaction.
Different combinations between AtE2Fs bait and AtDPs prey constructs were tested for growth on His minimal media. −, no interaction; +, positive interaction; NT, not tested.

Measured: binding result

B1: empty pAD-GAL424 (GAL4 transactivation domain alone) (other, UniProt P04386 768-881, looked up)
chain: ANFNQSGNIADSSLSFTFTNSSNGPNLITTQTNSQALSQPIASSNVHDNFMNNEITASKIDDGNNSKPLSPGWTDQTAYNAFGITTGMFNTTTMDDVYNYLFDDEDTPPNPKKE
notes: empty prey vector, control for specificity
no binding: [1] | [2] | [3] | [4] | [5] | [6]
